Results on five molecules are retold here after paper doi:10.1101/2024.04.23.590744 (bioRxiv, 2024).

Changes are numbered by the printed parent chain. Names and notes keep the numbering of the source. Read-outs that look alike come from different tables or passages of the source.

What all share (experiment): SEC-MALS
In series [1] the target is human LETM1 F-EF-hand domain, residues 643-699, D676K/N678K (human) (UniProt O95202).
For series [2] the target is unchanged. The source holds these as a separate data set.
Series [3] concerns the molecule itself.
Series [4] concerns the molecule itself. This is another data set of the same source.

What is called stoichiometry N is a count of units in the complex or per binding partner. Regarding “human LETM1 F-EF-hand domain, residues 643-699, D676K/N678K (from UniProt O95202-1 643-699) (domain or fragment)”, the stoichiometry N in series [1] and in series [2] was 2 in each case.

B1: human LETM1 F-EF-hand domain, residues 643-699, wild type (domain or fragment, UniProt O95202-1 643-699, looked up)
chain: TGENVISVAELINAMKQVKHIPESKLTSLAAALDENKDGKVNIDDLVKVIELVDKED
For B1, the “stoichiometry N” value in the series “SEC-MALS [3]” is ~2.

B2: human LETM1 F-EF-hand domain, residues 643-699, D687E (domain or fragment, UniProt O95202-1 643-699, looked up)
chain: B1 chain with D45E
Consider B2, for which the “stoichiometry N” value in “SEC-MALS [3]” amounted to 2.

B3: human LETM1 F-EF-hand domain, residues 643-699, D686A/D687A (domain or fragment, UniProt O95202-1 643-699, looked up)
chain: B1 chain with D44A, D45A
As for B3, in “SEC-MALS [4]”, the “stoichiometry N” value was 2.

B4: human LETM1 F-EF-hand domain, residues 643-699, D676A/N678A (domain or fragment, UniProt O95202-1 643-699, looked up)
chain: B1 chain with D34A, N36A
In the case of B4, in “SEC-MALS [4]”, the “stoichiometry N” value worked out at 2.
